Experimental data from patent US20240247047A1.

Biological target: human BTLA (wild-type) on cells (human) (UniProt Q7Z6A9)
Assay: cell-based or functional assay

Sequence of human BTLA (wild-type) on cells (human) (Q7Z6A9 31-289): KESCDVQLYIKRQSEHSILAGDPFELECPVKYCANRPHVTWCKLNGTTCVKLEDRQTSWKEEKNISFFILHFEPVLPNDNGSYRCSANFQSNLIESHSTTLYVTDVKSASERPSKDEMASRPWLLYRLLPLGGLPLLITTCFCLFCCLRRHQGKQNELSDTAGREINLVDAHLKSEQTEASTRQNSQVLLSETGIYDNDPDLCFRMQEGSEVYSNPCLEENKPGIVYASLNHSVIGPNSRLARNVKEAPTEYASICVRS

Q: What does the source list for human CMV UL144-Fc (Fc fusion)?
A: ERK1/2 phosphorylation, control JTAg cells activated with co-immobilized anti-CD3 and Fc protein: 50 to 70 % reduction; ZAP70/Syk phosphorylation, JTAg cells with ectopic BTLA: 15 to 25%; phosphorylation of ERK, Akt and cellular phosphotyrosines, BJAB cells activated with co-immobilized anti-IgM and titrated Fc protein: 50 % reduction
